Assay results published in patent US20250034594A1, “RNA-GUIDED GENOME RECOMBINEERING AT KILOBASE SCALE” (THE BOARD OF TRUSTEES OF THE LELAND STANFORD JUNIOR …, priority 2021, published 2025).

B1: SSAP_269: SEQ ID NO: 438; Candidatus Parcubacteria bacterium (protein)
chain: TEYKRPQQPEQTKMLSAKLNQAGAPNKVSSFDVQLRDWFKKHSRKMQTLAGSKEEANKIITSLIFVAQRNPKLMTCTMESIGECLMQSAQLKLYPGPLQECAYVPFGNRATFMPQYQGLCKLAYNSGVVRSIATEVVYANDLFEFELGTNAYLRHVPTLSDNRGERIAAWCVVKTTHGEVIIVKPISFIEGIRKRSPAGNKKDSPWNTSDDDYDAMARKTVLKQALKTIPKSSDLAAAIQVDNAVESGSVDNVVTHIEPVTDPTPEETKE
modifications: Candidatus Parcubacteria bacterium
B2: SSAP_146: SEQ ID NO: 315; Mobilisporobacter senegalensis (protein, listed as Mobilisporobacter senegalensis)
chain: KDIKSALEKKVDKQDVKLTKSMSITDMIKALEPEIKKALPSVITPERFTRMALSAVNNTPKLAECSQMSFLAALMNAAQLGLEPNTSLGQAYLIPYQNKGKLECQFQLGFKGMIDLVYRNEKVQTIQAHCVYEEDYFEYELGLDSKLAHKPALANRGKMILVYAFFKLENGGFGFEVMSKEDIDIHALKYSKGYSSQYSPWKSNYEDMAKKTVIKKVLKYAPLKIDFQRAISVDETVKAEISIDMSEVQNEEIIDGQCTDVGEIEEK
B3: SSAP_124: SEQ ID NO: 293; Clostridium sp. AM58-1XD (protein, listed as Clostridium sp.)
chain: SVDVKNELEKRAAGTVNPAVKLTKNMTIVDMVRALEPEIKRALPTILTPERFMRMALSAINNTPELADCTPMSFIAALMNAAQLGMEPNTPLGQAYLIPYKNKGTLECQFQIGYKGLIDLAYRTGLIQVIQAQTVREFDSFEYQYGLDSRLTHRPGDGERGEITYIYGLFKLTNGGYGFEVSNKADMDAFAEKYSKSFGSRFSPWKENYEDMAKKTVIKRALKYAPVSSDFQKALSMDETIKSELSIDMSEIRNECQVEASGQEGAA
B4: SSAP_303: SEQ ID NO: 472; Paenibacillus sp. BK033 (protein, listed as Paenibacillus sp.)
chain: AANTQLITIHNNLEKLIEAKKDAMPQGFNKTRFIQNCMTVLQDTYGIEKCEPTTVARTLLKGAFLGLDFFNKECYAIPYGASMNFQTDYKGERKLAKKYSVRKVKDIYAKLVRAGDVFEENITDGQQTIQFAPVPFNNGDIVGAFAVVLFHDGGMLYETMSIAEMEHIKENYSKKSKDTGKFSKAWEVSTGEMYKKTVLRRLCKNIELDFDTIEQARAFEDAADVDFNKKTAPQQTSPLNVVEAEYEVVNDGSATEAQSE
B5: SSAP_201: SEQ ID NO: 370; Streptomyces reniochalinae (protein, listed as Streptomyces reniochalinae)
chain: SQISNAVAKRDNSPGAMVQQYKADFSTVLPDHVKPDTWVRLAQGVLRRDKNLAQAAERNPGSLMTALLDCARLGHEPGTESFYLVPFGGEVQGIEGYRGVVERMYRAGAIASVKAEVVCQGDDFDYQPDMDKPRHRVDWFGDRGPIVGAYAYAIFKDGSTSRVAVINRAYIDKVKKESKGSDRATSPWMKWEEQMVLKTVAKRLEPWVPTSNEWRREQLRAAREVANEPTPPTTPAPPAPEQVDPDTGEVIDGELVDDTPTQ
B6: SSAP_207: SEQ ID NO: 376; Mycobacterium sp. 1245499.0 (protein, listed as Mycobacterium sp.)
chain: TTQPEYKPVAQGADKQMTTGKLLKMLEPEIGRALPKGMDPDRICRLVMTEVRKNPMLTQCTQESFAGALLTASALGLEPGVNGEAWLVPYRDRKRGIVECQFIMGYNGVAKLFWQSPHADRLDAQLVCANDHFRYVKGLSPILEHVESDGDRGDPIAYYAIVGVKGAQPMWDVFKPEAIAQLRGGRVGTKGDIDDPQRWMERKTALKQVLKLAPKSTRLDLAIRADERSGSDLYKSQGMEVHAIEPGFIETEAEPETQEQ
B7: SSAP_177: SEQ ID NO: 346; Geomicrobium sp. JCM 19055 (protein, listed as Geomicrobium sp.)
chain: GYKGMIDLARRSGHIKSIYAHTVHANDEFEYELGLEPKLVHKPATGDRGNMEYAYAVAHFVDGGYQFEVFSHHDIEQVKKRSKAGNFGPWKTDYEEMAKKTVVRRMFKYLPISIEIQQHASQDETVRRDITEEAEKVDNIIDLPNYEDPNNIDVPDEEQDEQKDEKQKQQGSAEEIALDFK
B8: SSAP_83: SEQ ID NO: 252 (protein)
chain: TLQAVCPTQDKAVESQLDQTKFELIKRTICKGTTDDEFQLFIHACKRTGLDPFMRQIFAVKRWDSAERREVMTIQTGIDGYRLIADRTGRYAPGRDAEFGYDAHGGLRWAKAYVKKMTPDGHWHEISATAFWTEYVQTTKDGRPTVFWMKKGHVMLSKCAEALALRKTFPAELSGIYTQEEMAQTMSLPDTKGDSQTIGSDKAYEIERSIDNDPEFKTQLLTRLQRAFGCKSFSDLPQDQFKNVKKVIENHQIKEKIA
B9: SSAP_185: SEQ ID NO: 354; Pirellula sp. SH-Sr6A (protein, listed as Pirellula sp.)
chain: SEATKEAKPETAIAKKPNGIKDWLKSDALKTQIASVAPKHMAPERVMRIALNAVSRTPKLADCTPESFMRCLLDLSSWGLEPDGRHAHLIPYGTECTLVLDYKGLVTLAYRSGWVKKIHADVVFEGDIFVYSLGTVCQHIPWEFRDDANKPEHKGHFRAAYCVVTMADGIEKHEVMTASEIDAIKAKSRSGNSGPWKDHYTEMAKKTVYRRASKWLPLSPEQADAMERDDDRIIDAVSVAVTQRLSKAAMPLIGANETGDTE
B10: SSAP_33: SEQ ID NO: 202 (protein)
chain: TTNQVVTHKNFFNAPNVQKSFDDVWKGAGVQFATSILSVIQGNASLKSASNESIMTSAMKAAVLNLPIEPSLGRAYLVPYKGQVQFQLGYKGLIELAQRSGKYKSINAGPVYKSQFVSYDPLFEELTLDFTQPQDEVIGYFASFSLLNGFRKLTYWTKAEVEAHGKKFSKTFGNGPWKTDFDAMARKTVLKHILSIYGPLSVEMQTGMQNDESENDNATRDIKTAEPVNADQQLLEDLMNVDTETGEILEEVSELKDNGELDLKYEDPNAR
B11: SSAP_241: SEQ ID NO: 410; Antribacter gilvus (protein, listed as Antribacter gilvus)
chain: SADVVIRQHATELTSVLPSHLAEKGDGWLNAAVAAVRKDRNLWNAANSDPGAVMNALAEAARLGLQPGSKEYYLTVRGGKVLGIVGYQGEIELMYRAGAVSSVIVEPVFERDGFEYTPGVDDRPKHRIDWDADDRGPIRLAYAYAVMKDGAVSKVVVVNKTRIRRAKDASATAGKSHSPWTSDEVAMWMKTAAHDLAKWVPTSAEYIREQLRAVKEVEAEPARASDPRPEPVHIVEAQILDEDPFPNAPEDGAA
B12: SSAP_118: SEQ ID NO: 287; Kribbella albertanoniae (protein, listed as Kribbella albertanoniae)
chain: ATADSVREELARSKEVERTQPKASNADNVIGLINRSLPEIAKALPGHVKPERIARIATTAVRVTPKLADCTQASFLGALLTAAQLGLEPNTPTGEAYLLPFGRNVQLIIGYRGYIKLANQSGQVRNIMAMTVYENDHFDYKYGSNPFLEHTPTLGQDPGPVKCWYACATFTNGGTNFVVLDKFKVEGYRARARSKDDGPWVTDYDAMARKTCIRRLAPYLPMSVELAQAMQVDEEVTAFTPGVSDPEVLATLAGVDTGTGEVQQ
B13: SSAP_284: SEQ ID NO: 453; Paenibacillus sp. VMFN-D1 (protein, listed as Paenibacillus sp.)
chain: AKALLENKLQERAAGASTPSTQGTSLKALLNSPAIKKRFDELLDKRSAQYMTSIVNLYNSDAMLQKAEPMSVISSCIVAATLDLPVDKNLGYAWIVPYSGKAQFQLGYKGYIQLALRTGQYKAINVIEVYEGELVKWNPLTEALELDFEKRKSDAVIGYAGYFELINGFRKSVYWTREQIESHRKKFSKSDFGWKKDYDAMAKKTIIRNMLSKWGILSIEMQDAYSKEIEAIPPLNNENEEDPPIDLTPEDYRVGDEPQDGKEQGEMNFE

Experiments:
Type in all cases: cell-based
[1] = system: gene editing with Cas9 and dCas9; assay: Screen of 322 new SSAP proteins, activity across all experiments (Cas9 and dCas9, Table 5); design: scale not given here
How it was run: (§1)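 First, 322 new single-strand annealing proteins are identified from sequences. Next they are synthesized. Finally each is assayed for editing in combination with Cas9 and, separately, dCas9.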

gene editing with dCas9 = assay: Screen of 322 new SSAP proteins, gene editing activity with dCas9 (Table 5); design: dCas9 with SSAP activity: scale not given here
How it was run: as §1

gene editing with Cas9 = assay: Screen of 322 new SSAP proteins, gene editing activity with Cas9 (Table 5); design: Cas9 with SSAP activity: scale not given here
How it was run: as §1

Molecule | Activity across all experiments [1] | dCas9 with SSAP activity (gene editing with dCas9) | Cas9 with SSAP activity (gene editing with Cas9) | Cas9 with SSAP activity (normalized) (gene editing with Cas9) | dCas9 with SSAP activity (normalized) (gene editing with dCas9)
B1 | −8.768 | −9.789 | −7.746 | −2.190 | –
B2 | −5.040 | −9.454 | −0.626 | −2.428 | −1.210
B3 | −7.244 | −8.790 | −5.698 | −1.064 | –
B4 | −3.683 | −9.053 | 1.686 | 2.052 | –
B5 | −4.249 | −8.036 | −0.461 | −0.195 | −1.510
B6 | −6.496 | −8.053 | −4.938 | −0.798 | −1.345
B7 | −0.236 | −0.179 | −0.293 | −0.508 | −0.069
B8 | −5.182 | −9.459 | −0.905 | −1.189 | −1.391
B9 | −5.013 | −8.201 | −1.825 | −0.708 | −2.012
B10 | −3.528 | −8.362 | 1.307 | 0.578 | −1.043
B11 | −5.085 | −9.530 | −0.640 | −3.561 | −2.720
B12 | −9.467 | −9.467 | −9.467 | – | –
B13 | −4.873 | −8.073 | −1.673 | −1.388 | −1.172
